Experimental data reported in the supplement of paper PMC11246515.
± gives the standard deviation of the averaged measurements.

Test: total protein half-life in vivo (active degradation + dilution); higher = more stable protein
[1] = E. coli NCM3722 delta-clpP delta-lon delta-hslV, growth: N-lim chemostat, doubling time 6 h
[2] = E. coli NCM3722 delta-clpP, growth: N-lim chemostat, doubling time 6 h
[3] = E. coli NCM3722 delta-hslV, growth: N-lim chemostat, doubling time 6 h
[4] = E. coli NCM3722 delta-smpB, growth: N-lim chemostat, doubling time 6 h
[5] = wild type E. coli NCM3722, growth: C-lim chemostat, doubling time 3 h
[6] = wild type E. coli NCM3722, growth: C-lim chemostat, doubling time 6 h
[7] = wild type E. coli NCM3722, growth: C-lim chemostat, doubling time 12 h
[8] = wild type E. coli NCM3722, growth: N-lim chemostat, doubling time 6 h
[9] = wild type E. coli NCM3722, growth: N-lim chemostat, doubling time 12 h
[10] = wild type E. coli NCM3722, growth: P-lim chemostat, doubling time 6 h
[11] = wild type E. coli NCM3722, growth: P-lim chemostat, doubling time 12 h
[12] = E. coli NCM3722 delta-lon, growth: N-lim chemostat, doubling time 6 h

| Sequence | total protein half-life in vivo [1] [h] | total protein half-life in vivo [2] [h] | total protein half-life in vivo [3] [h] | total protein half-life in vivo [4] [h] | total protein half-life in vivo [5] [h] | total protein half-life in vivo [6] [h] | total protein half-life in vivo [7] [h] | total protein half-life in vivo [8] [h] | total protein half-life in vivo [9] [h] | total protein half-life in vivo [10] [h] | total protein half-life in vivo [11] [h] | total protein half-life in vivo [12] [h] |
| --- | --- | --- | --- | --- | --- | --- | --- | --- | --- | --- | --- | --- |
| MKFELDTTDGRARRGRLVFDRGVVETPCFMPVGTYGTVKGMTPEEVEATGAQIILGNTFHLWLRPGQEIMKLHGDLHDFMQWKGPILTDSGGFQVFSLGDIRKITEQGVHFRNPINGDPIFLDPEKSMEIQYDLGSDIVMIFDECTPYPADWDYAKRSMEMSLRWAKRSRERFDSLGNKNALFGIIQGSVYEDLRDISVKGLVDIGFDGYAVGGLAVGEPKADMHRILEHVCPQIPADKPRYLMGVGKPEDLVEGVRRGIDMFDCVMPTRNARNGHLFVTDGVVKIRNAKYKSDTGPLDPECDCYTCRNYSRAYLHHLDRCNEILGARLNTIHNLRYYQRLMAGLRKAIEEGKLESFVTDFYQRQGREVPPLNVD [P0A847] | 5.511 ± 0.011 | 5.15 ± 0.27 | 4.74 ± 0.42 | 4.12 ± 0.42 | 3.176 ± 0.02 | 6.4 ± 0.068 | 10.9 ± 0.33 | 5.08 ± 0.26 | 9.05 ± 0.3 | 6.03 ± 0.7 | 13.7 ± 1.2 | – |
| MLRECDYSQALLEQVNQAISDKTPLVIQGSNSKAFLGRPVTGQTLDVRCHRGIVNYDPTELVITARVGTPLVTIEAALESAGQMLPCEPPHYGEEATWGGMVACGLAGPRRPWSGSVRDFVLGTRIITGAGKHLRFGGEVMKNVAGYDLSRLMVGSYGCLGVLTEISMKVLPRPRASLSLRREISLQEAMSEIAEWQLQPLPISGLCYFDNALWIRLEGGEGSVKAARELLGGEEVAGQFWQQLREQQLPFFSLPGTLWRISLPSDAPMMDLPGEQLIDWGGALRWLKSTAEDNQIHRIARNAGGHATRFSAGDGGFAPLSAPLFRYHQQLKQQLDPCGVFNPGRMYAEL | 4.1 ± 1.8 | – | – | – | 1.22 ± 0.36 | 2.52 ± 0.13 | 3.59 ± 0.039 | – | – | – | 3.88 ± 1.7 | – |
| MNHSLKPWNTFGIDHNAQHIVCAEDEQQLLNAWQYATAEGQPVLILGEGSNVLFLEDYRGTVIINRIKGIEIHDEPDAWYLHVGAGENWHRLVKYTLQEGMPGLENLALIPGCVGSSPIQNIGAYGVELQRVCAYVDSVELATGKQVRLTAKECRFGYRDSIFKHEYQDRFAIVAVGLRLPKEWQPVLTYGDLTRLDPTTVTPQQVFNAVCHMRTTKLPDPKVNGNAGSFFKNPVVSAETAKALLSQFPTAPNYPQADGSVKLAAGWLIDQCQLKGMQIGGAAVHRQQALVLINEDNAKSEDVVQLAHHVRQKVGEKFNVWLEPEVRFIGASGEVSAVETIS | 4.93 ± 1.3 | 3.45 ± 0.048 | 3.8 ± 0.13 | 3.52 ± 0.22 | 2.93 ± 0.053 | 4.83 ± 0.63 | 9.87 ± 0.28 | 3.66 ± 0.11 | 5.41 ± 0.096 | 4.81 ± 0.36 | 8.99 ± 0.82 | 3.89 ± 0.49 |
| MPKFRVSLFSLALMLAVPFAPQAVAKTAAATTASQPEIASGSAMIVDLNTNKVIYSNHPDLVRPIASISKLMTAMVVLDARLPLDEKLKVDISQTPEMKGVYSRVRLNSEISRKDMLLLALMSSENRAAASLAHHYPGGYKAFIKAMNAKAKSLGMNNTRFVEPTGLSVHNVSTARDLTKLLIASKQYPLIGQLSTTREDMATFSNPTYTLPFRNTNHLVYRDNWNIQLTKTGFTNAAGHCLVMRTVINNKPVALVVMDAFGKYTHFADASRLRTWIETGKVMPVPAAALSYKKQKAAQMAAAGQTAQND [P0AFI5] | 3.37 ± 0.94 | 4.68 ± 1.7 | 2.57 ± 0.64 | 1.81 ± 0.06 | 1.2 ± 0.078 | 1.65 ± 0.34 | 5.03 ± 1.2 | 2.93 ± 0.48 | 3.05 ± 0.18 | 3.78 ± 3.8 | 5.78 ± 1.1 | 2.78 ± 0.39 |
| MAFQVKIHQIRAFVEVARQGSIRGASRMLNMSQPALSKSIQELEEGLAAQLFFRRSKGVTLTDAGESFYQHASLILEELRAAQEDIRQRQGQLAGQINIGMGASISRSLMPAVISRFHQQHPQVKVRIMEGQLVSMINELRQGELDFTINTYYQGPYDHEFTFEKLLEKQFAIFCRPGHPAIGARSIKQLLDYSWTMPTPHGSYYKQLSELLDDQAQTPQVGVVCETFSACISLVAKSDFLSKLPEEMGCDPLHGQGLVMLPVSEILPKAAYYLIQRRDSRQTPLTASLITQFRRECGYLQS | – | – | – | – | – | – | – | 0.867 | 0.857 | – | – | 2.39 ± 0.088 |
| MSFFISDAVAATGAPAQGSPMSLILMLVVFGLIFYFMILRPQQKRTKEHKKLMDSIAKGDEVLTNGGLVGRVTKVAENGYIAIALNDTTEVVIKRDFVAAVLPKGTMKAL [P0ADZ7] | 5.95 ± 0.52 | 6.69 ± 0.75 | 5.78 ± 0.33 | 6.28 ± 0.31 | 3.16 ± 0.14 | 6.018 ± 0.04 | 11.5 ± 0.56 | 5.64 ± 0.49 | 12.8 ± 2 | 6.55 ± 0.62 | 13 ± 0.39 | 5.892 ± 0.037 |
| MTNVLIVEDEQAIRRFLRTALEGDGMRVFEAETLQRGLLEAATRKPDLIILDLGLPDGDGIEFIRDLRQWSAVPVIVLSARSEESDKIAALDAGADDYLSKPFGIGELQARLRVALRRHSATTAPDPLVKFSDVTVDLAARVIHRGEEEVHLTPIEFRLLAVLLNNAGKVLTQRQLLNQVWGPNAVEHSHYLRIYMGHLRQKLEQDPARPRHFITETGIGYRFML | 5.392 ± 0.013 | 5.1 ± 0.7 | 5.29 ± 0.32 | 4.92 ± 0.36 | 3.04 ± 0.1 | 5.35 ± 0.76 | 10.1 ± 0.52 | 5.05 ± 0.32 | 9.806 ± 0.011 | 5.79 ± 0.17 | 10.1 ± 2 | 4.99 ± 0.47 |
